Assay results as given in publication PMC3232311 (Biochemistry, 2011).

Target: the molecule itself
Test: SEC

B1: Mycobacterium smegmatis mycothiol S-transferase (MSMEG_0887), native enzyme (enzyme, UniProt A0QQV2 1-185, looked up)
chain: MTAREPTTKTSTGSVNESAAVRELLRDAFTRLIEHVDDLTDGLTEEVSSYRPTPEANSIAWLLWHSARCQDMQLCDIAGVEQVWTRDGWIDRFDLGLPPDDIGYGHSPEEVAKVQAPAELLAGYYHAVHKVTLEYIATVTPGEMDRVVDTNWNPPVTASARLISIIDDCAQHLGQAAYLRGIIPR
stoichiometry N: 2
